Drawing on US20200109182A1, “GLP-1 ANALOG FUSION PROTEIN AND PREPARATION METHOD AND APPLICATION THEREOF” (JIANGSU T-MAB BIOPHARMA CO., LTD, priority 2013, published 2020), this text covers EC50 (CRE-luciferase reporter, test NO. 1), EC50 (CRE-luciferase reporter, test NO. 2) and EC50 (CRE-luciferase reporter, test NO. 3) for one substance.

The target of this experiment is GLP-1 receptor (GLP-1R) on CHO DG44 2-A4-2-A8 cells. Put plainly: cell-based or functional assay.

In turn, “GLP-1 (7-37) (Val^8-GLP-1 (7-37)) (from UniProt P01275 27-57) (peptide)” yielded an EC50 (CRE-luciferase reporter, test NO. 1) of 0.75 nM; an EC50 (CRE-luciferase reporter, test NO. 2) of 0.368 nM; an EC50 (CRE-luciferase reporter, test NO. 3) of 0.364 nM.
